# Assay results as given in publication PMC12510028, “A biophysical and molecular characterization of the interaction between the Alzheimer risk factor BIN1 and the neuronal scaffold protein p140Cap” (The Journal of Biological Chemistry, 2025).
# T1: BIN1 SH3 domain (Homo sapiens, UniProt O00499)
# T1 construct: His (N); made in house; host or cells: E. coli BL21 (DE3)
# T1 sequence (O00499 520-593 limits assumed): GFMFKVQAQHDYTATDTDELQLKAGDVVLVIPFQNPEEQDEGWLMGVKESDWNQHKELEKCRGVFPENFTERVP
# T2: Avi-tagged BIN1 SH3 domain (human, UniProt O00499 520-593, biotin within the 15 amino acid AviTag peptide (enzymatic, in E. coli))
# T2 chain: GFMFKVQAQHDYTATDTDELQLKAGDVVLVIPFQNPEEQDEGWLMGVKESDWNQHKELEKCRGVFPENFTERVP
# T3: Avi-tagged BIN1 SH3 domain (human, UniProt O00499 520-593, biotin within the 15 amino acid AviTag peptide (enzymatic, in E. coli))
# T3 construct: human BIN1 (bridging integrator 1), the C-terminal 81 amino acids that encompass the SH3 domain; 12 kDa by the methods; vector pAviBir, insert between BamHI and NotI; also called Avi-BSH3; AviBir-Bin1 SH3; source: E. coli BL21 (DE3), purified (HisTrap HP, Sephacryl S-200 gel filtration); not shown: AviTag, N-terminal, kept
# T3 sequence (looked up): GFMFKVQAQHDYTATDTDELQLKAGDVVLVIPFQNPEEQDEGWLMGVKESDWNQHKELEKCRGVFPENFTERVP
# B1: p140Cap from mouse brain (natural protein)
# chain: MQPWQCLRRFALAWWERTAEGRARSPREEVGPRDPGGRGEPDPERSSPPMLSADDAEYPREYRTLGGGGGGGSGGRRFSNVGLVHTSERRHTVIAAQSLEALSGLQKADADRKRDAFMDHLKSKYPQHALALRGQQDRMREQVGGWTVDPVCLLSSLCSHLHGDSTPSGAGQPAQQPNYWSFKTRSSRHTQGAQPGLADQAAKLSYASAESLETMSEAELPLGFSRMNRFRQSLPLSRSASQTKLRSPGVLFLQFGEETRRVHITHEVSSLDTLHALIAHMFPQKLTMGMLKSPNTAILIKDEARNVFYELEDVRDIQDRSIIKIYRKEPLYAAFPGSHLTNGDLRREMVYASRESSPTRRLNNLSPASHLASSSPPPGLPSGLPSGLPSGSPSRSRLSYAGGRPPSYAGSPVHHAAERLGGAPTGQGVSPSPSAILERRDVKPDEDLAGKAGGMVLVKGEGLYADPYGLLHEGRLSLAAAAETHSHTRARAACTSGVPCALSAPTPLPRCSPTWRTRCTRRALAALYGDGYGFRLPPSSPQKLADVSAPSGGPPPPHSPYSGPPSRGSPVRQSFRKDSGSSSVFAESPGGKARSTGSASTAGAPPSELFPGPGERSLVGFGPPVPAKDTETRERMEAMEKQIASLTGLVQSALLRGSEPETPSEKVEGSNGAATPSAPVCGSGSKSSGATPVSGPPPPSASSTPAGQPTAVSRLQMQLHLRGLQNSASDLRGQLQQLRNVQLQNQESVRALLKPTEADVSMRVSEAARRQEDPLQRQRTLVEEERLRYLNDEELITQQLNDLEKSVEKIQRDVAHNHRLMPGPELEEKALVLKQLGETLTELKAHFPGLQSKMRVVLRVEVEAVKFLKEEPQRLDGLLKRCRGVTDTLAQIRRQVDEGMWPPPNNLLNQSPKKVAAETDFSKGLDFEIPPPSPPLNLHELSGPAEGTPLTPKSTNPTKCLDASSKRNTDKAVSVEAAERDWEEKRAALTQYSAKDINRLLEETQAELLKAIPDLDCASKTHPGPAPTPDHKPPKAPHGQKAAPRTEPSGRRGSDELTVPRYRTEKPSKSPPPPPPRRSFPSSHGLTTTRTGEVVVTSKKDSVFIKKAESEELEVQKPQVKLRRAVSEVVRPASTPPIMASAIKDEDDEERIIAELESGGSSVPPMKVVTPGASRLKAAQGPAGSPDKGKHGKQRTEYMRIQAQQQATKPSKEVSGPNETSSPGSEKPSGSRTSIPVLTSFGARNSSISF
# B2: p140Cap 14-mer peptide 1033-1046 (peptide)
# peptide: Ac-KPSKSPPPPPPRRS-NH2
# notes: also called p140Cap_(1033-1046); native 14-mer peptide; source: synthetic peptide (GenScript, reversed-phase HPLC, ≥95% purity)
# B3: tau 13-mer peptide 154-166 (peptide)
# peptide: TPSLPTPPTREPK
# notes: tau, proline-rich domain, class II PRM extended at both ends; The methods tell acetylation and amination of the ends only for the 14-residue peptides; also called tau_(154-166); 13-mer tau peptide; source: synthetic peptide
# B4: p140Cap native class IIa 7-mer peptide (peptide)
# peptide: PPPPPRR
# notes: human p140Cap, class IIa PRM of the C-terminal proline-rich domain; source: synthetic peptide
# B5: tau 6-mer peptide 158-163 (peptide)
# peptide: PTPPTR
# notes: tau, proline-rich domain, minimum consensus class II PRM; The methods tell acetylation and amination of the ends only for the 14-residue peptides; also called tau_(158-163); 6-mer tau peptide; source: synthetic peptide
# Experiments:
# BIN1 SH3 domain = biological target: T1, BIN1 SH3 domain; assay: SPR equilibrium affinity of peptides for biotinylated BIN1-SH3 domain; format: binding; conditions: for Kd: SPR Biacore S200, Biotin CAPture chip, Avi-BIN1-SH3 immobilised as ligand, peptide as analyte, reference cell CTX-M-14 subtracted, 25 °C, PBS-P+, steady-state 1:1 fit, mean ± SD of three technical replicates, p140Cap peptides tested 0.6–75 μM; for binding to BIN1-SH3 in words: SPR, tested analyte concentrations 0.6–75 μM
# Method: We undertook a candidate approach to identify biologically relevant neuronal proteins that interact with BIN1’s SH3 domain (Fig. 1A). First, we referenced published KD calculations for several BIN1 SH3 domain ligands ([45]), setting a KD cut-off at <10 μM for our study. Then, we obtained a published index of potential protein interactors from a study that computationally predicted the top 100 peptide binding partners for each of 70 human SH3 domains, generated by SH3PepInt, an alignment-free, graph kernel-based tool ([46]). We curated the predicted BIN1 SH3-binding proteins using a set of criteria to ensure: 1) neuronal expression, 2) subcellular localization at the synapse, and 3) molecular functions relevant to neuronal BIN1 in neurotransmitter vesicle dynamics ([25]). We then utilized available protein structures in the Protein Data Bank or those predicted by AlphaFold to confirm the accessibility of each putative SH3-binding site within the full-length protein, prioritizing peptides known to adopt the left-handed polyproline-II helix. From these analyses, we nominated 10 proteins for an initial screening using 14-mer peptides in surface plasmon resonance (SPR) analysis (Fig. 1B). The purified Avi-tagged BIN1 SH3 domain was immobilized as the ligand on flow cell 2, while a nonbinding control protein was immobilized on flow cell 1 (Fig. S1). Subsequently, each peptide was injected in solution over the sensor surface as the analyte (Fig. 1B). To correct for nonspecific binding, response units from flow cell 1 were subtracted from those of flow cell 2 to determine the KD.
# The ^1033KPSKSPPPPPPRRS^1046 p140Cap peptide harbors three canonical PRMs: class I, ^1036KSPPPPP^1042; class IIa, ^1038PPPPPRR^1045; and class IIb, ^1037PPPPPPR^1044 (Fig. 2A). […] Thus, we used SPR in combination with alanine-scanning mutagenesis to determine which of the three class motifs on p140Cap mediates binding to BIN1’s SH3 domain. We synthesized 14-mer peptides with alanine substitutions at either the basic residues alone or in combination with the corresponding prolines for all three canonical PRM classes. We also synthesized 7-mer peptides containing the native core motif for cross-referencing (Fig. 2B). […] We reasoned that alanine substitution of residues not involved in BIN1-SH3 binding would produce similar, if not identical, KDs to the native 14-mer peptide. […] Thus, we would be able to identify the precise motif responsible for facilitating the BIN1–p140Cap interaction.
# All experiments were conducted using the Biacore S200 (GE Healthcare), equipped with a series S Biotin Capture chip (Cytiva Life Sciences) at 25 °C in 1X PBS-P + [0.2 M phosphate buffer with 27 mM KCl, 1.37 M NaCl, and 0.5% surfactant P20 (Tween 20)] running buffer. The chip surface was first conditioned with three 1-min injections of regeneration solution (3:1 8 M guanidine-HCl: 1 M NaOH) immediately after docking. Biotin CAPture reagent (50 μg/ml in HBS-EP buffer [0.01 M Hepes (pH 7.4), 0.15 M NaCl, 3 mM EDTA, 0.005% surfactant P20]), 3.4 ml) was immobilized on the chip surface at a flow rate of 2 μl/min for 5 min prior to ligand immobilization. Affinity run assays were conducted by immobilizing 50 μg/ml Avi-BSH3 (12 kDa, >90% pure based on SDS-PAGE) diluted in 1X PBS-P+ running buffer at 5 ul/min for 60 s on a streptavidin-coated matrix on flow cell 2. Additionally, 50 μg/ml Avi-tagged nonbinding protein (CTX-M-14 β-lactamase, 30 kDa, >90% pure based on SDS-PAGE) diluted in 1X PBS-P+ running buffer was immobilized at 5 μl/min for 60 s on flow cell 1 to serve as a reference surface for subtraction of bulk refractive index background. To collect affinity data, the analytes were diluted in running buffer and injected over the two flow cells in serial dilution at a flow rate of 30 μl/min. The complexes were allowed to associate and dissociate for 30 s and 300 s, respectively. The surfaces were then regenerated with three 60 s injections of regeneration solution. […]
# [1] = biological target: Avi-tagged BIN1 SH3 domain (human) (UniProt O00499); assay: SPR; Biacore S200, Biotin CAPture chip; biotinylated Avi-BIN1-SH3 captured on flow cell 2, Avi-tagged CTX-M-14 β-lactamase on reference flow cell 1; peptides injected as analytes at 30 μl/min; 25 °C, 1X PBS-P+; steady-state analysis, 1:1 model
# [2] = biological target: GST-tagged BIN1-SH3 domain MutK (K30R, rs138047593) (human); assay: pull-down; 25 μg GST or GST-BSH3 (WT or mutant) on glutathione-Sepharose with 0.5 mg of 1% Triton X-100 soluble mouse brain homogenate, 2 h at room temperature; washes with 50 mM KCl, 150 mM NaCl, 1.5% IGEPAL; immunoblot for p140Cap and total tau
# nsP3 (Chikungunya virus) = nsP3 (Chikungunya virus) (UniProt Q8JUX6); conditions: cited from earlier work
# [3] = biological target: T2, Avi-tagged BIN1 SH3 domain; assay: SPR
# [4] = biological target: T3, Avi-tagged BIN1 SH3 domain; assay: SPR; Biacore S200, Biotin CAPture chip; biotinylated Avi-BIN1-SH3 captured on flow cell 2, Avi-tagged CTX-M-14 β-lactamase on reference flow cell 1; peptides injected as analytes at 30 μl/min; 25 °C, 1X PBS-P+; steady-state analysis, 1:1 model; conditions: both partners purified
# [5] = biological target: T2, Avi-tagged BIN1 SH3 domain; assay: SPR
molecule,measurement,setting,value
Ac-ERSLVGFGPPVPAK-NH2 [p140Cap583-596],Kd,BIN1 SH3 domain,> 75 µM
p140Cap 14-mer peptide 1033-1046 with alanine substitution of the class I lysine (from UniProt Q9C0H9 1033-1046),Kd,[1],6.32 µM
p140Cap 14-mer peptide 1033-1046 with alanine substitution of the class I lysine and its corresponding prolines (from UniProt Q9C0H9 1033-1046),Kd,[1],21 µM
Ac-KPSKSPAPPAPARS-NH2 [KPSKSPAPPAPARS],Kd,BIN1 SH3 domain,> 75 µM
tau from mouse brain (from UniProt P10637-2 1-430) (natural protein),fold less bound than to WT BIN1-SH3,[2],2 fold
BIN1 SH3 (from UniProt O00499),Kd,nsP3 (Chikungunya virus),0.024 µM
Ac-PPPPPPR-NH2 (N-terminus and C-terminus assumed) [PPPPPPR],binding to BIN1-SH3 in words,BIN1 SH3 domain,outside the range of tested analyte concentrations
Ac-KSPPPPP-NH2 (N-terminus and C-terminus assumed) [KSPPPPP],binding to BIN1-SH3 in words,BIN1 SH3 domain,no binding within the range of tested analyte concentrations
p140Cap 14-mer peptide 1033-1046 with alanine substitution of the C-terminal arginine (class IIa) (from UniProt Q9C0H9 1033-1046),Kd,[1],26.3 µM
Ac-GYGFRLPPSSPQKL-NH2 [p140Cap498-512],Kd,BIN1 SH3 domain,> 75 µM
Ac-KPSKSPPAPPARAS-NH2 [KPSKSPPAPPARAS],Kd,BIN1 SH3 domain,> 75 µM
Ac-KPSKSPPPPPPARS-NH2 [p140Cap 14-mer peptide 1033-1046 with alanine substitution of the N-terminal arginine (class IIb)],Kd,[3],> 75 µM
Ac-KPSKSPPAPPARAS-NH2,Kd,[4],> 75 µM
Ac-GYGFRLPPSSPQKL-NH2 [p140Cap 14-mer peptide 498-512],Kd,[5],> 75 µM
KSPPPPP [p140Cap native class I 7-mer peptide],Kd,[3],> 75 µM
B1,fold less bound than to WT BIN1-SH3,[2],2.6 fold
B2,Kd,[4],7.7 µM
Ac-ERSLVGFGPPVPAK-NH2 [p140Cap 14-mer peptide 583-596],Kd,[5],> 75 µM
B3,Kd,[4],484 µM
B4,Kd,[4],31.7 µM
PPPPPPR [p140Cap native class IIb 7-mer peptide],Kd,[3],> 75 µM
B5,Kd,[4],288 µM
